According to US20170335317:

Key:
[1] = target: ATRX full length (UniProt P46100); assay: filter
[2] = target: ATRX full length (UniProt P46100); assay: FP

Sequence of UniProt P46100 (P46100 whole entry): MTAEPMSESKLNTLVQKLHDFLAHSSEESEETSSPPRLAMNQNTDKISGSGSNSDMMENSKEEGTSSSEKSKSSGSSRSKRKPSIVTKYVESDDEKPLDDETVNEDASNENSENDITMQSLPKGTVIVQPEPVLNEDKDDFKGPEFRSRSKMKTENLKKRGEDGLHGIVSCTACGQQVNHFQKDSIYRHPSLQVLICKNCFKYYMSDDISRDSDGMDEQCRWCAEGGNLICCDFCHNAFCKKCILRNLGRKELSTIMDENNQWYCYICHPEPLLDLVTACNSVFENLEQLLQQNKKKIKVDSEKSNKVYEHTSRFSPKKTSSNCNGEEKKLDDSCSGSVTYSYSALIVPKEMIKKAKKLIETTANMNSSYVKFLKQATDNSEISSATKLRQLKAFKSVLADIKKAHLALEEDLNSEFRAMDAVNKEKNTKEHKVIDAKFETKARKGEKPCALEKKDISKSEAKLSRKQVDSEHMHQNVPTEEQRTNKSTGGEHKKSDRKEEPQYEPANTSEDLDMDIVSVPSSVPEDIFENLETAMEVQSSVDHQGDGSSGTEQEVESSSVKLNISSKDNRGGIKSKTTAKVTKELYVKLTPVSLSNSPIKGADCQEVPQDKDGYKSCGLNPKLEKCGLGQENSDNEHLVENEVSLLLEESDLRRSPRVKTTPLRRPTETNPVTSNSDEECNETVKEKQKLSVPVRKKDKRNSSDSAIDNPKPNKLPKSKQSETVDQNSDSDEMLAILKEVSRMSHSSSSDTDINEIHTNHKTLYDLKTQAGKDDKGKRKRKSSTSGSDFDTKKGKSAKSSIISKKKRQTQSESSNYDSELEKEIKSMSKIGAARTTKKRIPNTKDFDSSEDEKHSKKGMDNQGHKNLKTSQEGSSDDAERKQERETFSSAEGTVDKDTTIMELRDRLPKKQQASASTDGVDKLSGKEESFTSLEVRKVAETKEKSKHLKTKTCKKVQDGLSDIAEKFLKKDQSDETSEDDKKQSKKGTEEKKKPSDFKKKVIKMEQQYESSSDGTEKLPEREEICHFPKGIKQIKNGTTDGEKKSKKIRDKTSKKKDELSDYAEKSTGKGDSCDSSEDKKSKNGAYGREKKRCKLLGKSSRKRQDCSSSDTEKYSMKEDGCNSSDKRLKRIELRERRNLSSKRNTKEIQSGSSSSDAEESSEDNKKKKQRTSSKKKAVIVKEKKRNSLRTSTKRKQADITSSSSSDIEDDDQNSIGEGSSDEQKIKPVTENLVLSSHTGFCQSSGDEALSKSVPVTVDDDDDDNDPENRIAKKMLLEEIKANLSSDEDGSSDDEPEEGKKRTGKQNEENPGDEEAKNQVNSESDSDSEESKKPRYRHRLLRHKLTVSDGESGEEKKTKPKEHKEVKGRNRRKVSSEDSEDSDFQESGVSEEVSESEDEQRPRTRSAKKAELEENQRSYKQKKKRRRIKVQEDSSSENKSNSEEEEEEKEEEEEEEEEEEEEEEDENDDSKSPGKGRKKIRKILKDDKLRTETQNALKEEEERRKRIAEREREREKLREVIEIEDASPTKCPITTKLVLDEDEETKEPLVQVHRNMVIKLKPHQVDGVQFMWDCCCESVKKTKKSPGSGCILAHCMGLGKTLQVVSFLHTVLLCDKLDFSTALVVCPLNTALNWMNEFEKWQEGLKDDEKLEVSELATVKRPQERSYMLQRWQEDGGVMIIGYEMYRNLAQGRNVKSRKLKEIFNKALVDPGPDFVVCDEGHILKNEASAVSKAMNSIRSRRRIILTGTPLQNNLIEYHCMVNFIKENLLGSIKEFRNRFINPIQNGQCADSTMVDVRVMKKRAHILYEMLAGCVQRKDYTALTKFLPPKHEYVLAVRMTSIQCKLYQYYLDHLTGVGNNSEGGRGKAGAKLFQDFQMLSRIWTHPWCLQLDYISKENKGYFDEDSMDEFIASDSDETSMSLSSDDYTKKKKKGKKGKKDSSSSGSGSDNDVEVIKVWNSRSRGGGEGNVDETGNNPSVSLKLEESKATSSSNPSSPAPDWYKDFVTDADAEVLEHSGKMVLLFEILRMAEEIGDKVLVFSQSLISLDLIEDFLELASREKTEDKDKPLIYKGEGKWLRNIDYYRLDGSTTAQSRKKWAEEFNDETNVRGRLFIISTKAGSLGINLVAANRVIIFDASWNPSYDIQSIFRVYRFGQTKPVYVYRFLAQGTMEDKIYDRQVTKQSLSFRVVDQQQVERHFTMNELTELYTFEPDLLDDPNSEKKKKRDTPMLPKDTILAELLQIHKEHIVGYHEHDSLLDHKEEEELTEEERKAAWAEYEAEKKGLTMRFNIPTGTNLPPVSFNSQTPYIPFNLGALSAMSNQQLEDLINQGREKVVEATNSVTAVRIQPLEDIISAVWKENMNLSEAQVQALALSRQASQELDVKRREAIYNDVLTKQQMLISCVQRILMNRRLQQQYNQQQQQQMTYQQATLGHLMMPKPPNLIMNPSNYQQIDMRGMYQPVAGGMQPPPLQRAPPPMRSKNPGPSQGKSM

## Hotair dsDNA
[1]; Kd>>200 nM
  Kd: > 200 nM

## MBP dsDNA
[1]; Kd>>200 nM
  Kd: > 200 nM

## MBP mRNA first 300 nt
[1]; Kd>>200 nM
  Kd: > 200 nM

## P4-P6 ribozyme RNA
[1]; Kd>>200 nM
  Kd: > 200 nM

## Repeat A I-II RNA
[1]; +/-0.89, double-filter binding
  Kd: 9.96 nM

## Repeat A III-IV RNA
[1]; +/-3.35, double-filter binding
  Kd: 17.9 nM

## Repeat A dsDNA
[1]; unit not printed with value, nM by context
  Kd: 15.7 nM

## Repeat A ssDNA
[1]; could not bind well, Kd>>200 nM
  Kd: > 200 nM

## Xist Repeat A I-IV RNA
[2]
  Kd: 5.41 nM
